Measured values from publication PMC4565748 (Molecular immunology, 2015).

What was measured:
[1] = target: T1, complement C3b, site-specifically biotinylated (human, UniProt P01024 23-667; P01024 749-1663, biotin, site-specific (site not given)); assay: SPR
[2] = target: T1, complement C3b, site-specifically …; assay: SPR; remark: listed apart in the source
[3] = target: T1, complement C3b, site-specifically …; assay: AlphaScreen or HTRF

Row | Binder | Kd [1] [µM] | koff [1] [s⁻¹] | kon [1] [M⁻¹ s⁻¹] | Kd [2] [µM] | Kd [3] [µM]
1 | staphylococcal complement inhibitor SCIN-A, full-length wild type (natural protein) STSLPTSNEYQNEKLANELKSLLDELNVNELATGSLNTYYKRTIKISGQKAMYALKSKDFKKMSEAKYQLQKIYNEIDEALKSKY | 0.096 ± 0.016 | 0.051 | 550000 | 0.145 ± 0.056 | 
2 | SCIN-A.Q49A (natural protein) STSLPTSNEYQNEKLANELKSLLDELNVNELATGSLNTYYKRTIKISGAKAMYALKSKDFKKMSEAKYQLQKIYNEIDEALKSKY | 0.069 ± 0.0083 | 0.051 | 760000 | 0.22 ± 0.098 | 0.12
3 | SCIN-A.R42A.Q49A (natural protein) STSLPTSNEYQNEKLANELKSLLDELNVNELATGSLNTYYKATIKISGAKAMYALKSKDFKKMSEAKYQLQKIYNEIDEALKSKY |  |  |  | 15 | 14
4 | SCIN-A.R42A (natural protein) STSLPTSNEYQNEKLANELKSLLDELNVNELATGSLNTYYKATIKISGQKAMYALKSKDFKKMSEAKYQLQKIYNEIDEALKSKY | 6.6 ± 0.62 | 0.58 | 89000 | 8.5 ± 0.12 | 14
